Results taken from US10428327B2, “Compositions and methods for enhancing homologous recombination” (LIFE TECHNOLOGIES CORPORATION, priority 2016, dated 2019).
Oligonucleotides are written 5' to 3', each unit as a sugar letter and its base; * is a phosphorothioate linkage, no mark a phosphodiester; rarer units and linkages stand in square brackets, end groups in braces. Plain capitals give the bases only. d = 2'-deoxy (DNA); {P} = phosphate

How the values were obtained:
Type in all cases: cell-based
[1] = system: HEK293 cells stably expressing eBFP; assay: HDR assay, conversion of eBFP to GFP by flow cytometry; details: oligonucleotide length and modification, sequential delivery, 1 nt substitution, 48 hours
Description: To generate a HEK293FT stable cell line expressing eBFP, an eBFP ORF was synthesized by GENEART® custom DNA synthesis (Thermo Fisher Scientific) and then cloned into pDONAR221 vector. Using GATEWAY® recombination technology (Thermo Fisher Scientific), the eBFP ORF was transferred to pLenti6.2-DEST Gateway Vector and then verified by sequencing. Lentivirus was generated using VIRAPOWER® kit as described in the manual. To generate stable cell line, HEK293FT cells were transduced with 0.1 MOI of Lentivirus expressing eBFP. Three days post transduction cells were selected on 5 μg/mL Blasticidine antibiotics for 2 weeks. Cells expressing eBFP were then collected and diluted to […] in complete medium and plated into 96 well plates for single cell clone. After 2 weeks clones were isolated and verified for eBFP expression by flow cytometer. In a reporter assay using a stable eBFP-expressing HEK293 cell line, the substitution of C to T in eBFP gene converts His67 to Tyr67, generating a GFP variant (Table 5).
(§1) To create homologous recombination (HR) assays, a series of gRNAs flanking the insertion site within the EmGFP gene were designed and synthesized (Table 4). Each individual gRNA was combined with GENEART™ […]™ Cas9 Nuclease to form the Cas9 protein/gRNA ribonucleoprotein complexes (Cas9 RNPs). The Cas9 RNPs were then used to transfect cells via NEON® electroporation. The genomic cleavage efficiency was then evaluated using the GENEART® Genomic Cleavage Detection kit at 48 hours post transfection. The gRNAs with highest editing efficiencies and also in close proximity to the insertion site were selected for the subsequent HR assays. For donor design of a single-stranded oligonucleotide, typically the mutation site was positioned at the center flanked by 30 to 50 nucleotides on each side. For asymmetric donor design, 30 nucleotides were placed on either the left or right arm and then 50 or 67 nucleotides on the right or left arm respectively, in both PAM and non-PAM strands. For design of a dsDNA oligonucleotide with single-stranded overhangs, the insertion element was overlapped in the center flanked by various lengths of ssDNA oligonucleotide on each side. By annealing two single-stranded oligonucleotides at 95° C. for 3 minutes, dsDNA donor molecules with either a 5′ protrusion or a 3′ protrusion were generated. To measure homologous recombination efficiency, the donor DNA was either co-transfected with Cas9 RNPs or delivered sequentially into cells via electroporation. At 48 hours post transfection, the gain of EmGFP function in reporter cell lines was determined by flow cytometric analysis with an Attune® NxT Acoustic Focusing Cytometer (Thermo Fisher Scientific). Alternatively, the genomic loci were PCR-amplified using the corresponding primers and then subjected to GENEART® Genomic Cleavage Detection assay or restriction digestion. The resulting PCR products were also subjected to TOPO cloning. Typically, 96 colonies were randomly picked for sequencing. The sequencing data were analyzed using VECTOR NTI ADVANCE® 11.5 software (Thermo Fisher Scientific).
For each homologous recombination assay, 1.5 μg of Cas9 protein and 360 ng of gRNA were added to Resuspension Buffer R to a final volume of 7 μl, but limiting the total volume of Cas9 protein plus gRNA to less than 1 μl. The gRNA could be diluted in Buffer R if the concentration was too high. Upon mixing, the sample was incubated at room temperature for 5 to 10 minutes to form Cas9 RNPs. Meanwhile, […]™ HEK293 cells expressing either eBFP or disrupted EmGFP were detached from culture flask with TRYPLE™ Express Enzyme and then counted. Aliquots of 1×10^6 cells were washed once with DPBS without Ca^2+ and Mg^2+ and the cell pellets were resuspended in 50 μl of Resuspension Buffer R. A 5 μl aliquot of cell suspension was mixed with 7 μl of Cas9 RNPs. […] The electroporated cells were transferred to 300 μl of […]. […]

[2] = system: eBFP locus in HEK293 cells expressing eBFP; assay: EcoRI restriction digestion of PCR-amplified eBFP locus (FLAG tag/EcoRI insertion); details: FIG. 11B, length of 3′ overhang, 48 hours
Description: FIG. 11. Insertion of a FLAG tag along with an EcoRI site using dsDNA donor with single-stranded overhangs. (A) Various donor DNA molecules containing a 30-base FLAG tag along with an EcoRI site were designed and synthesized, including single-stranded DNA donor (ssDNA), blunt-end dsDNA donor (blunt), dsDNA donor with 5′ overhang (5′), dsDNA donor with 3′ overhang (3′). The length of overhangs varied from 6 nucleotides (6), 15 nucleotides (15) to 30 nucleotides (30). The 3′ and 5′ ends of the oligonucleotides harbored two consecutive phosphorothioate-modified bases (Table 4). The short dsDNA donors with and without overhangs were prepared by annealing two short DNA oligonucleotides. […] At 48 hours post transfection, the eBFP locus was PCR-amplified. The resulting PCR fragments were analyzed by the genomic cleavage and detection assays to determine the percentage of Indel or subjected to restriction digestion with EcoRI to determine the percentage of digestion. (B) Length of 3′ overhang. […] Alternatively, a dsDNA donor with 30-base 3′ overhang but without phosphorothioate modification (30-3′n) was used. The percentage of digestion with EcoRI was determined at 48 hours post transfection. (C) Dose effect. […] The eBFP loci were PCR-amplified. The resulting PCR fragments were analyzed by EcoRI digest. (D) Sequencing verification. The PCR fragments were cloned into E. coli and 192 clones were randomly picked for sequencing. The relative percentage of wild type (wt), NHEJ, and HDR clones derived from either ssDNA donor (ssDNA) or dsDNA with 3′ overhangs (3′ overhang) was plotted. The white rectangles represented the population of clones that contained the insert but with a point mutation. Examples of edited clones were shown in (E) (not representing the actual percentages of NHEJ and HDR). The underlined sequences represented the FLAG tag along with an RI site. FIG. 11 discloses SEQ ID NOs: 15-24, respectively, from top to bottom.
as §1, with “The sequencing data were analyzed using VECTOR NTI ADVANCE® 11.5 software (Thermo Fisher Scientific).” left out

[3] = system: EmGFP gene in GRIPTITE HEK293 cells; assay: Sequencing analysis of FLAG tag/EcoRI insertion with +5 gRNA; details: sequential delivery, 48 hours
Protocol: In order to understand the polarity of dsDNA donor with single stranded overhangs, we inserted a FLAG epitope tag along with an EcoRI site into a separate locus where the +5 gRNA was targeting the bottom strand of EmGFP gene (see Table 21). The Cas9 RNPs were first delivered into […]™ HEK293 cells, followed by the delivery of ssDNA donor, or short dsDNA donors with 32-base single stranded overhangs at either 5′ or 3′ end. Samples in the absence of gRNA served as controls. At 48 hours post transfection, the genomic loci were amplified by PCR. The resulting PCR fragments were subjected to restriction digestion with EcoRI (data not shown) or subjected to sequencing analysis. The integration efficiency of FLAG epitope tag along with an EcoRI was approximately 34% using dsDNA donor with 3′ overhangs and 20% using ssDNA donor.

## 50: unmodified 50-mer ssDNA, BFP point mutation, SEQ ID 54 (DNA CCCACCCTCGTGACCACCCTGACCTACGGCGTGCAGTGCTTCAGCCGCTA; DNA, backbone not given here) [compound 50]
[1]
  Avg (% GFP+ cells): 14.4%

B1: 70: unmodified 70-mer ssDNA, BFP point mutation, SEQ ID 50 (nucleic acid)
DNA: CCCGTGCCCTGGCCCACCCTCGTGACCACCCTGACCTACGGCGTGCAGTGCTTCAGCCGCTACCCCGACC
modifications: DNA, backbone not given here
[1]
  Avg (% GFP+ cells): 34.7%

B2: PS100: phosphorothioate 100-mer ssDNA, BFP point mutation, SEQ ID 45 (nucleic acid)
DNA: {P}-dA*dC*dCdGdGdCdAdAdGdCdTdGdCdCdCdGdTdGdCdCdCdTdGdGdCdCdCdAdCdCdCdTdCdTdGdAdCdCdAdCdCdCdTdGdAdCdCdTdAdCdGdGdCdGdTdGdCdAdGdTdGdCdTdTdCdAdGdCdCdGdCdTdAdCdCdCdCdGdAdCdCdAdCdAdTdGdAdAdGdCdAdGdCdAdCdGdA*dC*dT
[1]
  Avg (% GFP+ cells): 38.4%

B3: PS90: phosphorothioate 90-mer ssDNA, BFP point mutation, SEQ ID 47 (nucleic acid)
DNA: GCAAGCTGCCCGTGCCCTGGCCCACCCTCGTGACCACCCTGACCTACGGCGTGCAGTGCTTCAGCCGCTACCCCGACCACATGAAGCAGC
modifications: 5' phosphate, modified ends, chemistry not fully specified
[1]
  Avg (% GFP+ cells): 38.8%

B4: 90: unmodified 90-mer ssDNA, BFP point mutation, SEQ ID 46 (nucleic acid)
DNA: GCAAGCTGCCCGTGCCCTGGCCCACCCTCGTGACCACCCTGACCTACGGCGTGCAGTGCTTCAGCCGCTACCCCGACCACATGAAGCAGC
modifications: unmodified DNA
[1]
  Avg (% GFP+ cells): 32.8%

B5: 80: unmodified 80-mer ssDNA, BFP point mutation, SEQ ID 48 (nucleic acid)
DNA: GCTGCCCGTGCCCTGGCCCACCCTCGTGACCACCCTGACCTACGGCGTGCAGTGCTTCAGCCGCTACCCCGACCACATGA
modifications: DNA, backbone not given here
[1]
  Avg (% GFP+ cells): 38.4%

B6: 45-3′: dsDNA donor with 45-base 3′ overhangs, annealed SEQ ID 95 and 96 (nucleic acid)
chain 1: GACTACAAAGACGATGACGACAAGAATTCTTACGGCGTGCAGTGCTTCAGCCGCTACCCCGACCACATGAAGCAGCAC
chain 2: AAGAATTCTTGTCGTCATCGTCTTTGTAGTCGGTCAGGGTGGTCACGAGGGTGGGCCAGGGCACGGGCAGCTTGCCGG
modifications: chemistry not fully specified
[2]
  Avg (% digestion): 37.0%

B7: PS70: phosphorothioate 70-mer ssDNA, BFP point mutation, SEQ ID 51 (nucleic acid)
DNA: {P}-dC*dC*dCdGdTdGdCdCdCdTdGdGdCdCdCdAdCdCdCdTdCdGdTdGdAdCdCdAdCdCdCdTdGdAdCdCdTdAdCdGdGdCdGdTdGdCdAdGdTdGdCdTdTdCdAdGdCdCdGdCdTdAdCdCdCdCdGdA*dC*dC
[1]
  Avg (% GFP+ cells): 39.2%

B8: 36-3′: dsDNA donor with 36-base 3′ overhangs, annealed SEQ ID 93 and 94 (nucleic acid)
chain 1: dA*dA*dGdAdAdTdTdCdTdTdGdTdCdGdTdCdAdTdCdGdTdCdTdTdTdGdTdAdGdTdCdGdGdTdCdAdGdGdGdTdGdGdTdCdAdCdGdAdGdGdGdTdGdGdGdCdCdAdGdGdGdCdAdCdG*dG*dG
chain 2: dG*dA*dCdTdAdCdAdAdAdGdAdCdGdAdTdGdAdCdGdAdCdAdAdGdAdAdTdTdCdTdTdAdCdGdGdCdGdTdGdCdAdGdTdGdCdTdTdCdAdGdCdCdGdCdTdAdCdCdCdCdGdAdCdC*dA*dC
modifications: further chemistry not fully specified
[2]
  Avg (% digestion): 41.7%

B9: 32-3′: short dsDNA donor with 32-base 3′ overhangs, EmGFP, SEQ ID 100 and 101 (nucleic acid)
chain 1: AGAATTCTTGTCGTCATCGTCTTTGTAGTCAGGTGGTCACGAGGGTGGGCCAGGGCACGGGC
chain 2: GACTACAAAGACGATGACGACAAGAATTCTACGGCGTGCAGTGCTTCGCCCGCTACCCCGAC
modifications: DNA, backbone and methylation of C not given here; further chemistry not fully specified
[3]
  Relative % HDR (integration of FLAG epitope tag along with EcoRI): 34.2%
  Relative % NHEJ: 54.6%
  Relative % wt: 11.1%
[3]; listed as dsDNA donor with 3′ overhangs
  Relative % HDR (integration of FLAG epitope tag along with EcoRI): approximately 34%
